The labels stand for the following.
B1: GpH7-B3 variant K326_04F/GpL16-k0 (antibody, human IgG1, kappa)
heavy: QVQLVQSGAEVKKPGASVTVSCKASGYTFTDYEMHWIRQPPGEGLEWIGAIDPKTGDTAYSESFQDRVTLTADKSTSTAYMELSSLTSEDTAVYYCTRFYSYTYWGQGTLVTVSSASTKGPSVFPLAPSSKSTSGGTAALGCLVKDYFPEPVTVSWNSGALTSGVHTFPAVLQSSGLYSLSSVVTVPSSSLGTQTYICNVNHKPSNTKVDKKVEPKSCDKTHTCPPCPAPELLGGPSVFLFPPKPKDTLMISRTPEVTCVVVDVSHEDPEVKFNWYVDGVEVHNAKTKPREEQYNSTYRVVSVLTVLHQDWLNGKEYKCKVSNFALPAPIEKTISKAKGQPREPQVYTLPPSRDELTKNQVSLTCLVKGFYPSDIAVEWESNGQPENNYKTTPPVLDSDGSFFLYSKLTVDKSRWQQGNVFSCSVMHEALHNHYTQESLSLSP
light: DIVMTQSPLSLPVTPGEPASISCQASESLVHSNRNTYLHWYLQKPGQSPQLLIYKVSNRFSGVPDRFSGSGSGTDFTLKISRVEAEDVGVYYCSQNTHVPPTFGQGTKVEIERTVAAPSVFIFPPSDEQLKSGTASVVCLLNNFYPREAKVQWKVDNALQSGNSQESVTEQDSKDSTYSLSSTLTLSKADYEKHKVYACEVTHQGLSSPVTKSFNRGEC
notes: also called Ho Ab K326_04F
B2: GpH7-B3 variant K334_08L/GpL16-k0 (antibody, human IgG1, kappa)
heavy: not shown
light: DIVMTQSPLSLPVTPGEPASISCQASESLVHSNRNTYLHWYLQKPGQSPQLLIYKVSNRFSGVPDRFSGSGSGTDFTLKISRVEAEDVGVYYCSQNTHVPPTFGQGTKVEIERTVAAPSVFIFPPSDEQLKSGTASVVCLLNNFYPREAKVQWKVDNALQSGNSQESVTEQDSKDSTYSLSSTLTLSKADYEKHKVYACEVTHQGLSSPVTKSFNRGEC
notes: also called Ho Ab K334_08L
B3: GpH7-B3 variant K334_02A/GpL16-k0 (antibody, human IgG1, kappa)
heavy: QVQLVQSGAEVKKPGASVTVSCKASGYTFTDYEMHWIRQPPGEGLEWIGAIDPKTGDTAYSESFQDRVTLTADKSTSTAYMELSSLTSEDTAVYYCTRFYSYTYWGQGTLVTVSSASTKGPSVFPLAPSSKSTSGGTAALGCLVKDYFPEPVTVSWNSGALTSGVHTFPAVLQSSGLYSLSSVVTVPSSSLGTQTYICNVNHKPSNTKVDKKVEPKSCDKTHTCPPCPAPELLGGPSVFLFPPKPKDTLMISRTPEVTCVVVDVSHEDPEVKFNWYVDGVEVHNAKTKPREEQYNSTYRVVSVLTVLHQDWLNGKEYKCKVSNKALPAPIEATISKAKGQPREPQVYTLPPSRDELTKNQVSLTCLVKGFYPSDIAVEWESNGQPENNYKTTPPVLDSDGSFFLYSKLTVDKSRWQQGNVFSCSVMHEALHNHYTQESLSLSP
light: DIVMTQSPLSLPVTPGEPASISCQASESLVHSNRNTYLHWYLQKPGQSPQLLIYKVSNRFSGVPDRFSGSGSGTDFTLKISRVEAEDVGVYYCSQNTHVPPTFGQGTKVEIERTVAAPSVFIFPPSDEQLKSGTASVVCLLNNFYPREAKVQWKVDNALQSGNSQESVTEQDSKDSTYSLSSTLTLSKADYEKHKVYACEVTHQGLSSPVTKSFNRGEC
notes: also called Ho Ab K334_02A
B4: GpH7-B3 variant K326_15Y/GpL16-k0 (antibody, human IgG1, kappa)
heavy: not shown
light: DIVMTQSPLSLPVTPGEPASISCQASESLVHSNRNTYLHWYLQKPGQSPQLLIYKVSNRFSGVPDRFSGSGSGTDFTLKISRVEAEDVGVYYCSQNTHVPPTFGQGTKVEIERTVAAPSVFIFPPSDEQLKSGTASVVCLLNNFYPREAKVQWKVDNALQSGNSQESVTEQDSKDSTYSLSSTLTLSKADYEKHKVYACEVTHQGLSSPVTKSFNRGEC
notes: also called Ho Ab K326_15Y
B5: GpH7-B3 variant K326_07I/GpL16-k0 (antibody, human IgG1, kappa)
heavy: not shown
light: DIVMTQSPLSLPVTPGEPASISCQASESLVHSNRNTYLHWYLQKPGQSPQLLIYKVSNRFSGVPDRFSGSGSGTDFTLKISRVEAEDVGVYYCSQNTHVPPTFGQGTKVEIERTVAAPSVFIFPPSDEQLKSGTASVVCLLNNFYPREAKVQWKVDNALQSGNSQESVTEQDSKDSTYSLSSTLTLSKADYEKHKVYACEVTHQGLSSPVTKSFNRGEC
notes: also called Ho Ab K326_07I
B6: GpH7-B3 variant K334_04F/GpL16-k0 (antibody, human IgG1, kappa)
heavy: not shown
light: DIVMTQSPLSLPVTPGEPASISCQASESLVHSNRNTYLHWYLQKPGQSPQLLIYKVSNRFSGVPDRFSGSGSGTDFTLKISRVEAEDVGVYYCSQNTHVPPTFGQGTKVEIERTVAAPSVFIFPPSDEQLKSGTASVVCLLNNFYPREAKVQWKVDNALQSGNSQESVTEQDSKDSTYSLSSTLTLSKADYEKHKVYACEVTHQGLSSPVTKSFNRGEC
notes: also called Ho Ab K334_04F
B7: GpH7-B3 variant K326_20W/GpL16-k0 (antibody, human IgG1, kappa)
heavy: not shown
light: DIVMTQSPLSLPVTPGEPASISCQASESLVHSNRNTYLHWYLQKPGQSPQLLIYKVSNRFSGVPDRFSGSGSGTDFTLKISRVEAEDVGVYYCSQNTHVPPTFGQGTKVEIERTVAAPSVFIFPPSDEQLKSGTASVVCLLNNFYPREAKVQWKVDNALQSGNSQESVTEQDSKDSTYSLSSTLTLSKADYEKHKVYACEVTHQGLSSPVTKSFNRGEC
notes: also called Ho Ab K326_20W
B8: GpH7-B3 variant K334_05P/GpL16-k0 (antibody, human IgG1, kappa)
heavy: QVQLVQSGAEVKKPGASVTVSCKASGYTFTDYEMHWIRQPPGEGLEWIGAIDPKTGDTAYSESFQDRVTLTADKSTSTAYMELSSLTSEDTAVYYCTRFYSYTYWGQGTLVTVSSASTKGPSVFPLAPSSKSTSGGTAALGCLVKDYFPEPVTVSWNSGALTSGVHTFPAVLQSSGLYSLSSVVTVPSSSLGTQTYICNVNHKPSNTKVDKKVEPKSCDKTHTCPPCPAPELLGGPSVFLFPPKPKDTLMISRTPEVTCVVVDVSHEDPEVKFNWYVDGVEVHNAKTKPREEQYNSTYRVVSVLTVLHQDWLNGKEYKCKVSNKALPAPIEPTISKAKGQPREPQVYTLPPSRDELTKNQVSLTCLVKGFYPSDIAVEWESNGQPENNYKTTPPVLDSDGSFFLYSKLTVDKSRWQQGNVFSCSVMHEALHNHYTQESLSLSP
light: DIVMTQSPLSLPVTPGEPASISCQASESLVHSNRNTYLHWYLQKPGQSPQLLIYKVSNRFSGVPDRFSGSGSGTDFTLKISRVEAEDVGVYYCSQNTHVPPTFGQGTKVEIERTVAAPSVFIFPPSDEQLKSGTASVVCLLNNFYPREAKVQWKVDNALQSGNSQESVTEQDSKDSTYSLSSTLTLSKADYEKHKVYACEVTHQGLSSPVTKSFNRGEC
notes: also called Ho Ab K334_05P
B9: GpH7-B3 variant K334_12R/GpL16-k0 (antibody, human IgG1, kappa)
heavy: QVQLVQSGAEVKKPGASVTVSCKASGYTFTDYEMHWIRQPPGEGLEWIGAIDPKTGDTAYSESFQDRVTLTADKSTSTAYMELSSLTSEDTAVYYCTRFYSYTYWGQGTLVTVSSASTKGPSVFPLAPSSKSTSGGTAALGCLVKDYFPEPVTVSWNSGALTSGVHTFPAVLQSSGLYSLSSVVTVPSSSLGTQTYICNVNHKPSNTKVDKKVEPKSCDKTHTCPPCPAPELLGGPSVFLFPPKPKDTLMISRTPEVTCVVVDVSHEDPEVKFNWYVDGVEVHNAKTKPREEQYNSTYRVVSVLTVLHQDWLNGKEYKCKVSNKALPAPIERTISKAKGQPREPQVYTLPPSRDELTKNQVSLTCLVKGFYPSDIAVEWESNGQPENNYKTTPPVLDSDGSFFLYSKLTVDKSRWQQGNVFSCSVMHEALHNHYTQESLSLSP
light: DIVMTQSPLSLPVTPGEPASISCQASESLVHSNRNTYLHWYLQKPGQSPQLLIYKVSNRFSGVPDRFSGSGSGTDFTLKISRVEAEDVGVYYCSQNTHVPPTFGQGTKVEIERTVAAPSVFIFPPSDEQLKSGTASVVCLLNNFYPREAKVQWKVDNALQSGNSQESVTEQDSKDSTYSLSSTLTLSKADYEKHKVYACEVTHQGLSSPVTKSFNRGEC
notes: also called Ho Ab K334_12R
B10: GpH7-B3 variant K334_10E/GpL16-k0 (antibody, human IgG1, kappa)
heavy: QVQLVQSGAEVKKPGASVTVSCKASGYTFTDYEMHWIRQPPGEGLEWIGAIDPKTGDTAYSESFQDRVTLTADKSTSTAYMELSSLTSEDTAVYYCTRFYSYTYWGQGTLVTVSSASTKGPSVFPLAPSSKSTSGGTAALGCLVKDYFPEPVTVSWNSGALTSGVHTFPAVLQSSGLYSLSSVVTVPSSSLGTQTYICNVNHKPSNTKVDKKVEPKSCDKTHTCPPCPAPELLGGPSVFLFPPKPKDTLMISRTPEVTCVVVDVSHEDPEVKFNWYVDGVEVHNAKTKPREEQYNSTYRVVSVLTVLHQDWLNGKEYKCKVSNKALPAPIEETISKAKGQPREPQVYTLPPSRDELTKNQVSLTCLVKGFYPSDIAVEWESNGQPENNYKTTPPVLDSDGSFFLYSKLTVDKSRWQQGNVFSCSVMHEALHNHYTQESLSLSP
light: DIVMTQSPLSLPVTPGEPASISCQASESLVHSNRNTYLHWYLQKPGQSPQLLIYKVSNRFSGVPDRFSGSGSGTDFTLKISRVEAEDVGVYYCSQNTHVPPTFGQGTKVEIERTVAAPSVFIFPPSDEQLKSGTASVVCLLNNFYPREAKVQWKVDNALQSGNSQESVTEQDSKDSTYSLSSTLTLSKADYEKHKVYACEVTHQGLSSPVTKSFNRGEC
notes: also called Ho Ab K334_10E
B11: GpH7-B3 variant L234_04F/GpL16-k0 (antibody, human IgG1, kappa)
heavy: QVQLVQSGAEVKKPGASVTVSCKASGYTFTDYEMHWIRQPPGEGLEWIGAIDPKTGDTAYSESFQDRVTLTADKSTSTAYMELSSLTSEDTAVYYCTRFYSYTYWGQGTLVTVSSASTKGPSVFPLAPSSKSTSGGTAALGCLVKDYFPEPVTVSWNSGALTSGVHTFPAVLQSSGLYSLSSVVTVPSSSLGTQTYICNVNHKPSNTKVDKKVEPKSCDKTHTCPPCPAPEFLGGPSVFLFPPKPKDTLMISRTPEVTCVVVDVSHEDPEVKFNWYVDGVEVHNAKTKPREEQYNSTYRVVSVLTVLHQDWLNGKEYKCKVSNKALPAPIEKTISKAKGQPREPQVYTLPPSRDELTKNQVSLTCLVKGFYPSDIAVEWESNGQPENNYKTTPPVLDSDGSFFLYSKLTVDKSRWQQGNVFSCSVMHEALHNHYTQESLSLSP
light: DIVMTQSPLSLPVTPGEPASISCQASESLVHSNRNTYLHWYLQKPGQSPQLLIYKVSNRFSGVPDRFSGSGSGTDFTLKISRVEAEDVGVYYCSQNTHVPPTFGQGTKVEIERTVAAPSVFIFPPSDEQLKSGTASVVCLLNNFYPREAKVQWKVDNALQSGNSQESVTEQDSKDSTYSLSSTLTLSKADYEKHKVYACEVTHQGLSSPVTKSFNRGEC
notes: also called Ho Ab L234_04F
B12: GpH7-B3 variant K326_12R/GpL16-k0 (antibody, human IgG1, kappa)
heavy: not shown
light: DIVMTQSPLSLPVTPGEPASISCQASESLVHSNRNTYLHWYLQKPGQSPQLLIYKVSNRFSGVPDRFSGSGSGTDFTLKISRVEAEDVGVYYCSQNTHVPPTFGQGTKVEIERTVAAPSVFIFPPSDEQLKSGTASVVCLLNNFYPREAKVQWKVDNALQSGNSQESVTEQDSKDSTYSLSSTLTLSKADYEKHKVYACEVTHQGLSSPVTKSFNRGEC
notes: also called Ho Ab K326_12R
B13: GpH7-B3 variant K326_18N/GpL16-k0 (antibody, human IgG1, kappa)
heavy: not shown
light: DIVMTQSPLSLPVTPGEPASISCQASESLVHSNRNTYLHWYLQKPGQSPQLLIYKVSNRFSGVPDRFSGSGSGTDFTLKISRVEAEDVGVYYCSQNTHVPPTFGQGTKVEIERTVAAPSVFIFPPSDEQLKSGTASVVCLLNNFYPREAKVQWKVDNALQSGNSQESVTEQDSKDSTYSLSSTLTLSKADYEKHKVYACEVTHQGLSSPVTKSFNRGEC
notes: also called Ho Ab K326_18N
B14: GpH7-B3 variant L234_20W/GpL16-k0 (antibody, human IgG1, kappa)
heavy: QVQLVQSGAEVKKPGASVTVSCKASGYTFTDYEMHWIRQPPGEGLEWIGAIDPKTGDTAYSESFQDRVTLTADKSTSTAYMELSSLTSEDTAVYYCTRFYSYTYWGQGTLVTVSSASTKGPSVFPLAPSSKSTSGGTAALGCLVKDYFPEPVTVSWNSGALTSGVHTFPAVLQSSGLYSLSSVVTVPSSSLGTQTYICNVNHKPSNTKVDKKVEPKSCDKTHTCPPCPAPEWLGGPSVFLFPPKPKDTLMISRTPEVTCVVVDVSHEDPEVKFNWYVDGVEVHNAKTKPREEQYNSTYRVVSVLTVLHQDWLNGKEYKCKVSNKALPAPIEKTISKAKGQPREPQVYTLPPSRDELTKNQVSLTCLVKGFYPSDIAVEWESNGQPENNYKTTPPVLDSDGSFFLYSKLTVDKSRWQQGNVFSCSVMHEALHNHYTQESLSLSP
light: DIVMTQSPLSLPVTPGEPASISCQASESLVHSNRNTYLHWYLQKPGQSPQLLIYKVSNRFSGVPDRFSGSGSGTDFTLKISRVEAEDVGVYYCSQNTHVPPTFGQGTKVEIERTVAAPSVFIFPPSDEQLKSGTASVVCLLNNFYPREAKVQWKVDNALQSGNSQESVTEQDSKDSTYSLSSTLTLSKADYEKHKVYACEVTHQGLSSPVTKSFNRGEC
notes: also called Ho Ab L234_20W
B15: GpH7-B3 variant K334_19Q/GpL16-k0 (antibody, human IgG1, kappa)
heavy: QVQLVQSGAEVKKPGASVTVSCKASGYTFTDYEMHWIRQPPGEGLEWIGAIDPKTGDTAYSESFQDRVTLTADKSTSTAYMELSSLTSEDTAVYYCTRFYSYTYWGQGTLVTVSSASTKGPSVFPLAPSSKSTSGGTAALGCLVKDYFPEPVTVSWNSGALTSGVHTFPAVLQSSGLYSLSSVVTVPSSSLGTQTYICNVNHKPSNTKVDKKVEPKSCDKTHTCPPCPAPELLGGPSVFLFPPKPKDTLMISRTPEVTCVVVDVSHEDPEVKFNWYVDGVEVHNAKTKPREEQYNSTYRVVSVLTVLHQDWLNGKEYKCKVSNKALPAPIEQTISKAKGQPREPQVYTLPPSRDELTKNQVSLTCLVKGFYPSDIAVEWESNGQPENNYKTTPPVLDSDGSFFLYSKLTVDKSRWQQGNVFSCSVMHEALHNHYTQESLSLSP
light: DIVMTQSPLSLPVTPGEPASISCQASESLVHSNRNTYLHWYLQKPGQSPQLLIYKVSNRFSGVPDRFSGSGSGTDFTLKISRVEAEDVGVYYCSQNTHVPPTFGQGTKVEIERTVAAPSVFIFPPSDEQLKSGTASVVCLLNNFYPREAKVQWKVDNALQSGNSQESVTEQDSKDSTYSLSSTLTLSKADYEKHKVYACEVTHQGLSSPVTKSFNRGEC
notes: also called Ho Ab K334_19Q
B16: GpH7-B3 variant K334_13S/GpL16-k0 (antibody, human IgG1, kappa)
heavy: not shown
light: DIVMTQSPLSLPVTPGEPASISCQASESLVHSNRNTYLHWYLQKPGQSPQLLIYKVSNRFSGVPDRFSGSGSGTDFTLKISRVEAEDVGVYYCSQNTHVPPTFGQGTKVEIERTVAAPSVFIFPPSDEQLKSGTASVVCLLNNFYPREAKVQWKVDNALQSGNSQESVTEQDSKDSTYSLSSTLTLSKADYEKHKVYACEVTHQGLSSPVTKSFNRGEC
notes: also called Ho Ab K334_13S
B17: GpH7-B3 variant K334_20W/GpL16-k0 (antibody, human IgG1, kappa)
heavy: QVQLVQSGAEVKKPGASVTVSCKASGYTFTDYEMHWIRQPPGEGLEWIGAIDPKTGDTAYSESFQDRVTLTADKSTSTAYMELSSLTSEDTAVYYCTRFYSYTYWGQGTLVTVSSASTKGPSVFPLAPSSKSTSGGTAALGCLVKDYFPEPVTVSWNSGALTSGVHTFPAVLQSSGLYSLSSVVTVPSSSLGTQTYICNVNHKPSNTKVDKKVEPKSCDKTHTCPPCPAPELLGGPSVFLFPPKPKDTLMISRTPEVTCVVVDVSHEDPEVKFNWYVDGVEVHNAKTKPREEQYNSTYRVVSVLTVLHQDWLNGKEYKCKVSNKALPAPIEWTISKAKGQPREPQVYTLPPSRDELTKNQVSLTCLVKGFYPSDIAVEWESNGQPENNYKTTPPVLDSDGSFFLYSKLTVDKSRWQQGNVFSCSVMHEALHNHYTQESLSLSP
light: DIVMTQSPLSLPVTPGEPASISCQASESLVHSNRNTYLHWYLQKPGQSPQLLIYKVSNRFSGVPDRFSGSGSGTDFTLKISRVEAEDVGVYYCSQNTHVPPTFGQGTKVEIERTVAAPSVFIFPPSDEQLKSGTASVVCLLNNFYPREAKVQWKVDNALQSGNSQESVTEQDSKDSTYSLSSTLTLSKADYEKHKVYACEVTHQGLSSPVTKSFNRGEC
notes: also called Ho Ab K334_20W
B18: GpH7-B3 variant L234_10E/GpL16-k0 (antibody, human IgG1, kappa)
heavy: not shown
light: DIVMTQSPLSLPVTPGEPASISCQASESLVHSNRNTYLHWYLQKPGQSPQLLIYKVSNRFSGVPDRFSGSGSGTDFTLKISRVEAEDVGVYYCSQNTHVPPTFGQGTKVEIERTVAAPSVFIFPPSDEQLKSGTASVVCLLNNFYPREAKVQWKVDNALQSGNSQESVTEQDSKDSTYSLSSTLTLSKADYEKHKVYACEVTHQGLSSPVTKSFNRGEC
notes: also called Ho Ab L234_10E
B19: GpH7-B3 variant L234_09D/GpL16-k0 (antibody, human IgG1, kappa)
heavy: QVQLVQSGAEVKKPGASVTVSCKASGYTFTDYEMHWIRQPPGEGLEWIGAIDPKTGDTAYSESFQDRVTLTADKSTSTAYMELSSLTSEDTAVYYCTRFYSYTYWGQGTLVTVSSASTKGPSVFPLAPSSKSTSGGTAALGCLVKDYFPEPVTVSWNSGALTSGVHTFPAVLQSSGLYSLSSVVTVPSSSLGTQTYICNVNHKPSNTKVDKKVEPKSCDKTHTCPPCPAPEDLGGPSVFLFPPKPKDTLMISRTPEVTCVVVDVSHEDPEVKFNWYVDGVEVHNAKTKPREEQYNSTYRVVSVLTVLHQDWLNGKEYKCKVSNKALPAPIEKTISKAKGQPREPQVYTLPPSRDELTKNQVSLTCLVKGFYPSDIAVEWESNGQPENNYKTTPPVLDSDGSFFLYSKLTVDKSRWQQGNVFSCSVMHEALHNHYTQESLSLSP
light: DIVMTQSPLSLPVTPGEPASISCQASESLVHSNRNTYLHWYLQKPGQSPQLLIYKVSNRFSGVPDRFSGSGSGTDFTLKISRVEAEDVGVYYCSQNTHVPPTFGQGTKVEIERTVAAPSVFIFPPSDEQLKSGTASVVCLLNNFYPREAKVQWKVDNALQSGNSQESVTEQDSKDSTYSLSSTLTLSKADYEKHKVYACEVTHQGLSSPVTKSFNRGEC
notes: also called Ho Ab L234_09D
B20: GpH7-B3 variant K326_08L/GpL16-k0 (antibody, human IgG1, kappa)
heavy: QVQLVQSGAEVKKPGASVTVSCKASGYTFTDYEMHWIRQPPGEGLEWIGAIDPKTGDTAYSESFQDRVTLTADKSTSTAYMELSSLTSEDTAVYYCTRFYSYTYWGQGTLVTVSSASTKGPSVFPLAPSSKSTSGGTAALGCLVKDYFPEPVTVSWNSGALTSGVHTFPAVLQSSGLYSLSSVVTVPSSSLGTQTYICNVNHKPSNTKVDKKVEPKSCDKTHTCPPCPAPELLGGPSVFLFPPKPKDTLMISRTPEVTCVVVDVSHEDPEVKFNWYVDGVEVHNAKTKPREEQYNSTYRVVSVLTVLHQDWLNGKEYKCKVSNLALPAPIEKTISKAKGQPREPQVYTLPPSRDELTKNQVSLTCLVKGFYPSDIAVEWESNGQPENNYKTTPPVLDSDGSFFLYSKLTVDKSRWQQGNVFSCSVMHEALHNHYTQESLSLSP
light: DIVMTQSPLSLPVTPGEPASISCQASESLVHSNRNTYLHWYLQKPGQSPQLLIYKVSNRFSGVPDRFSGSGSGTDFTLKISRVEAEDVGVYYCSQNTHVPPTFGQGTKVEIERTVAAPSVFIFPPSDEQLKSGTASVVCLLNNFYPREAKVQWKVDNALQSGNSQESVTEQDSKDSTYSLSSTLTLSKADYEKHKVYACEVTHQGLSSPVTKSFNRGEC
notes: also called Ho Ab K326_08L

The experiment has as its target T1, FcγRIIa R (human, UniProt P12318 34-217).
T1 construct: extracellular domain; also called FcgRIIa R type; 2aR
T1 sequence (looked up): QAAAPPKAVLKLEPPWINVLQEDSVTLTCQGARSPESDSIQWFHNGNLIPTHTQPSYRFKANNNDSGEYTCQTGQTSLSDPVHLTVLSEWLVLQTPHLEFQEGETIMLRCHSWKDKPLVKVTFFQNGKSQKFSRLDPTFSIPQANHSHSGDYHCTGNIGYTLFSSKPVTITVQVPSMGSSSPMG
The experiment can be described thus: SPR (Biacore), captured antibody, FcγR as analyte; relative binding activity. As for the experimental part:
Analysis of interaction between objective antibody and the FcγR was carried out using Biacore T100 (GE Healthcare). HBS-EP+ (GE Healthcare) was used as the running buffer, and the measurement temperature was set to 25° C. Chips produced by immobilizing the antigen peptide by the amine coupling method to a Series S Sencor Chip CM5 (GE Healthcare), or alternatively, chips produced by allowing preliminarily biotinylated antigen peptides to interact with and immobilize onto a Series S Sensor Chip SA (certified) (GE Healthcare) were used. Antibodies of interest were captured onto an antigen peptide-immobilized chip, and allowed to interact to each FcγR diluted with running buffer. To regenerate and repeatedly use the chip, the antibodies captured on the chip were washed off by reacting 10 mM glycine-HCl, pH 1.5.
(Surface plasmon resonance follows binding to a sensor surface in real time, without labels.)
B1: the Ho/Con_2aR was 133 % (GpH7-B3/GpL16-k0 = 100).
The figure for B2 is 105 % (GpH7-B3/GpL16-k0 = 100); for B3 it is 100 % (GpH7-B3/GpL16-k0 = 100); for B4 it is 134 % (GpH7-B3/GpL16-k0 = 100).
The figure for B5 is 133 % (GpH7-B3/GpL16-k0 = 100); for B6 it is 110 % (GpH7-B3/GpL16-k0 = 100); for B7 it is 120 % (GpH7-B3/GpL16-k0 = 100).
As to B8, the Ho/Con_2aR was 102 % (GpH7-B3/GpL16-k0 = 100).
With B9 the figure was 110 % (GpH7-B3/GpL16-k0 = 100); with B10, 106 % (GpH7-B3/GpL16-k0 = 100).
With B11 the figure was 43.3 % (GpH7-B3/GpL16-k0 = 100); with B12, 95.7 % (GpH7-B3/GpL16-k0 = 100); with B13, 113 % (GpH7-B3/GpL16-k0 = 100).
With B14, the Ho/Con_2aR is 53.8 % (GpH7-B3/GpL16-k0 = 100).
On to B15, for which the Ho/Con_2aR is 108 % (GpH7-B3/GpL16-k0 = 100).
The figure for B16 is 106 % (GpH7-B3/GpL16-k0 = 100).
As for B17, the Ho/Con_2aR is 96.4 % (GpH7-B3/GpL16-k0 = 100).
As to B18, the Ho/Con_2aR is 39.9 % (GpH7-B3/GpL16-k0 = 100).
With B19 the figure was 42.8 % (GpH7-B3/GpL16-k0 = 100).
The figure for B20 is 131 % (GpH7-B3/GpL16-k0 = 100).
